Measured values from PMC11430399, “Cold-induced degradation of core clock proteins implements temperature compensation in the Arabidopsis circadian clock” (Science Advances, 2024).

Target: T1, LOV KELCH PROTEIN 2 fused with GFP (LKP2-GFP) (Arabidopsis thaliana, UniProt Q8W420 1-611)
T1 construct: LKP2, Arabidopsis thaliana, AT2G18915; Own promoter-driven genomic LKP2; source: Arabidopsis 35Sp:PRR5-F/lkp2-cr3/LKP2-GFP transgenic seedlings, in protein extract
Experiment: co-IP; LKP2-GFP immunoprecipitated with anti-GFP antibodies from 35Sp:PRR5-F/lkp2-cr3/LKP2-GFP seedlings kept at 12° or 28°C for 24 hours with MG132; PRR5-FLAG detected by Western blot; three biological replicates
Details: partners not purified

T1 sequence (Q8W420 whole entry, the tested form may be a part): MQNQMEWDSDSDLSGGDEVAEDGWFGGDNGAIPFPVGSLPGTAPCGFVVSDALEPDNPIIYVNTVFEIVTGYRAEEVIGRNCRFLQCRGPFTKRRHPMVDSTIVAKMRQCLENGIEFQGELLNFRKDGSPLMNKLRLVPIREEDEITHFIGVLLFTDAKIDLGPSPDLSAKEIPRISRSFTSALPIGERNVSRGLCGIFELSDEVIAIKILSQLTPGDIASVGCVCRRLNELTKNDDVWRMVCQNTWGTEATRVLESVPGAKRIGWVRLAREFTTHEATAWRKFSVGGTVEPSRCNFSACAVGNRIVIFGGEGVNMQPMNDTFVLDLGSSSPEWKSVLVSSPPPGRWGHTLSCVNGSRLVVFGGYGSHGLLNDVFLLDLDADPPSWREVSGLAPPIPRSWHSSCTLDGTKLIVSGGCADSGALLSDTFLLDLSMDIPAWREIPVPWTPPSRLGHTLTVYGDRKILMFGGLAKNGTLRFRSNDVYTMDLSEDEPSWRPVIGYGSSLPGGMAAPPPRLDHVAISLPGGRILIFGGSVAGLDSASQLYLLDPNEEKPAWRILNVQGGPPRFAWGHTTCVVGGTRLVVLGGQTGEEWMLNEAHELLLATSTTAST

B1: PSEUDO-RESPONSE REGULATOR 5 with a C-terminal triple FLAG tag (PRR5-FLAG) (natural protein, Arabidopsis thaliana, UniProt Q6LA42 1-558, looked up)
chain: MTSSEEVVEVTVVKAPEAGGGKLSRRKIRKKDAGVDGLVKWERFLPKIALRVLLVEADDSTRQIIAALLRKCSYRVAAVPDGLKAWEMLKGKPESVDLILTEVDLPSISGYALLTLIMEHDICKNIPVIMMSTQDSVNTVYKCMLKGAADYLVKPLRRNELRNLWQHVWRRQTSLAPDSFPWNESVGQQKAEGASANNSNGKRDDHVVSGNGGDAQSSCTRPEMEGESADVEVSARDAVQMECAKSQFNETRLLANELQSKQAEAIDFMGASFRRTGRRNREESVAQYESRIELDLSLRRPNASENQSSGDRPSLHPSSASAFTRYVHRPLQTQCSASPVVTDQRKNVAASQDDNIVLMNQYNTSEPPPNAPRRNDTSFYTGADSPGPPFSNQLNSWPGQSSYPTPTPINNIQFRDPNTAYTSAMAPASLSPSPSSVSPHEYSSMFHPFNSKPEGLQDRDCSMDVDERRYVSSATEHSAIGNHIDQLIEKKNEDGYSLSVGKIQQSLQREAALTKFRMKRKDRCYEKKVRYESRKKLAEQRPRIKGQFVRQVQSTQAP
notes: PRR5, Arabidopsis thaliana; source: Arabidopsis 35Sp:PRR5-F transgenic seedlings (also 35Sp:PRR5-F/lkp2-cr3/LKP2-GFP), in protein extract; not shown: 3xFLAG, C-terminal, kept
fold of co-immunoprecipitated PRR5-FLAG at 12°C against 28°C: 15.9 fold
